# ± gives the uncertainty stated by the source.
# Assay: amyloid nucleation score (Sup35N fusion, yeast selection) (log enrichment); library NNK3; higher = more nucleation; inactive = no reads after selection
# In short: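 Psi-negative yeast expressed Sup35N fused to peptides of 20 random codons. They were induced 24 hours with 100 μM copper sulfate, grown 7 days at 30°C without adenine and uracil, and their plasmid inserts from input and output were Illumina-sequenced. The nucleation score is the DiMSum log enrichment of output over input reads, centred on the mode score of non-aggregating sequences. Sequences with under 100 input reads were excluded.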
row,Substance,amyloid nucleation score
1,FLYYLLMLVRVRCFEQVVIV,inactive
2,WSFNGSNECISRLDINLNVF,0.407 ± 0.15
3,RDRQFSSSDVPGCEVTGRTD,1.04 ± 0.12
4,WQPFD,inactive
5,HIWGIRKCDPPLTVVMFQSL,inactive
6,EYCKISD,inactive
7,TTSLSIGGLIFRLVL,inactive
8,RPYGFKAIVYGQCR,inactive
9,SLWVSI,inactive
10,WRAADDQTWGLVRCLSI,0.57 ± 0.17
11,WKCVLMTSATHMPQYPHGCG,inactive
12,LHKTTMYFRKISLRRFEMLL,inactive
13,LVVLIFYYV,inactive
14,WTGMPRTGWDGPRYKALSRS,inactive
15,SFNNININIVVFNVAPFSVH,2.51 ± 0.082
16,SIQRICMYLKGESCTRVYHS,inactive
17,HYINYINLQMVYFDVGQMYC,2.96 ± 0.062
18,SYGGYQFLYVNSDKLRV,inactive
19,FHTFSLTSINMVLLSFVVRF,inactive
20,SEWKNTRNTHVLWYTSDSAT,inactive
21,SIPLGFGMLSDDKSI,inactive
22,TGTSSKYVGEVLHSLVVWFA,-0.575 ± 1.5
23,RYKEFVGNSIRIPDTCLSCC,inactive
24,FRVAAMAISGTISCQYFQGL,0.739 ± 0.17
25,VIIPNFWLFEGLRAGKRRG,inactive
26,LSVRSTLARLPSGVIMMRSM,inactive
27,SYGLTHMSKAIGDHRVVIAT,inactive

row,Substance,amyloid nucleation score
1,PPSISSPFALRVFTFVLRY,inactive
2,RVRIKTWYRMMGYMLCWCEL,inactive
3,SDGHFLCV,inactive
4,GFYLVVKTINGFPNNLKWMA,0.296 ± 0.21
5,NVSPIGQISVNYGRMDCSEG,inactive
6,SRWSGFCIYRGN,inactive
7,MFYVVLSYK,0.071 ± 0.38
8,YVYGKNGARGDSIREMGPSE,inactive
9,QLKSVRACGRRGPLSQ,inactive
10,DRVKACARFGRW,inactive
11,GCRYQGHCHVYYLAERIACD,inactive
12,YNLGRNS,inactive
13,NNVVHEVNFLELRLRVILGY,inactive
14,TFRLAEQQSEFSDLK,-0.335 ± 0.71
15,TFNYYACTPIKFVWYLGTCP,2.54 ± 0.072
16,CMDKFWCVVYA,-0.416 ± 1.5
17,FSVSDSFP,inactive
18,FSVANGHRVM,inactive
19,IQGLCCRHAEFKNY,inactive
20,ATTNKLIYSHMVGKMLTSSF,inactive
21,LYLNEYELTLEAKRDYMNMR,inactive
22,DCRAIVLRL,inactive
23,VFMNKGQRV,inactive
24,FYSAISVAAYIEMTWESVDM,inactive
25,AVSAVCSAVCGLMSSSTDMD,0.527 ± 0.26
26,GYTVAKVNFNGWNRL,0.453 ± 0.35
27,THGIMLGFEECLGVYTFMCG,inactive

row,Substance,amyloid nucleation score
1,CATFFAKLQYNYH,1.28 ± 0.12
2,PLIYSTLNCKRM,inactive
3,NFRLYLLNCN,inactive
4,TMLWYLDDSSSNIREKSHGM,inactive
5,VFLNQCLSGVMGLEGVSLDR,inactive
6,YYCSDLSRSMDRSLRSTWPF,inactive
7,CNDGSHCLGYY,inactive
8,YRILINFLSWYLCIYYASCA,inactive
9,DNTQLSVCWSLSPDTVWKLG,inactive
10,CSGFRVNSSTVIGYLSILLK,inactive
11,SPQLNCEANWKVFCWAGMDP,inactive
12,FIVYLSCPWVRRFIVVMEFM,inactive
13,LPAEMELVWHRRMNLP,inactive
14,DWATFNLIKAVYLRRCSCGL,inactive
15,VLCSVFIFFLRGFDS,2.3 ± 0.066
16,VQFMMYVGTGIGAVGSGVNY,1.53 ± 0.11
17,SYSSIVCLGIDYRQAFWCIR,1.8 ± 0.077
18,AGGCDRYVHPRFLDKRSSWS,inactive
19,GVSIGNCTMKGEVDFMVDGK,inactive
20,TIFRSNDLRQYFWMA,1.63 ± 0.071
21,PMMVWFSNFLYVASMGPDSF,inactive
22,RLWWS,-0.186 ± 0.98
23,HFRIKNTCFKRCLSVESRKY,inactive
24,FFGFPLV,inactive
25,NLRNDIYMTSICCE,inactive
26,FSFCIGRMCDLQALTASCLN,inactive
